B1: mouse secretagogin [mouse] / helix-b of the Habc domain of mouse syntaxin-4 [mouse] (parent)
chain 1: MDNARRKTPARLDAACFWQIWQRFDKEEKGYIRETELDAFFDHLLAKSGTEDTLMEENVQKVKEQLMTSHNVSKEGRILMKELASMFLSEDENFLLFFRLETPLDNSVEFMQIWRKYDADSSGFISAAELCNFLRDLFLHHKKNISEAELEEYTSTMMKIFDKNKDGRLDLNDLARILALQENFLLQFKMDASSTEERKRDFEKIFAHYDVSKTGALEGPEVDGFVKDMMELVQPSISGVDLDKFREILLRHCDVNKDGKIQKSELALCLGLKINP
chain 2: TPLPEESMKQGLQNLREEIKQLGREVRAQLKAIEPQKE

Variants of: B1
Assay: ITC
Parameters: reference not given here
Conditions: with helix-b of the Habc domain of mouse syntaxin-4 [mouse]

**Q.** chain 1 MDNARRKTPARLDAACFWQIWQRFDKEEKGYIRETELDAFFDHLLAKSGTEDTLMEENVQKVKEQLMTSHNVSKEGRILMKELASMFLSEDENFLLFFRLETPLDNSVEFMQIWRKYDADSSGFISAAELCNFLRDLFLHHKKNISEAELEEYTSTMMKIFDKNKDGRLDLNDLARILALQENFLLQFKMDASSTEERKRDFEKIFAHYDVSKTGALEGPEVDGFVKDMMELAQPSISGVDLDKFREILLRHCDVNKDGKIQKSELALCLGLKINP [chain 1 V233A] was tested. Which ratio to parent did it give?
**A.** 0.31

**Q.** For chain 1 MDNARRKTPARLDAACFWQIWQRFDKEEKGYIRETELDAFFDHLLAKSGTEDTLMEENVQKVKEQLMTSHNVSKEGRILMKELASMFLSEDENFLLFFRLETPLDNSVEFMQIWRKYDADSSGFISAAELCNFLRDLFLHHKKNISEAELEEYTSTMMKIFDKNKDGRLDLNDLARILALQENFLLQFKMDASSTEEAKRDFEKIFAHYDVSKTGALEGPEVDGFVKDMMELVQPSISGVDLDKFREILLRHCDVNKDGKIQKSELALCLGLKINP [chain 1 R198A], which ratio to parent is on record?
**A.** 1.99

**Q.** chain 1 MDNARRKTPARLDAACFWQIWQRFDKEEKGYIRETELDAFFDHLLAKSGTEDTLMEENVQKVKEQLMTSHNVSKEGRILMKELASMFLSEDENFLLFFRLETPLDNSVEFMQIWRKYDADSSGFISAAELCNFLRDLFLHHKKNISEAELEEYTSTMMKIFDKNKDGRLDLNDLARILALQENFLLQFKMDASSTEERKRDFEKIFAHYDVSKTGALEGPEVDGFVKDEMELVQPSISGVDLDKFREILLRHCDVNKDGKIQKSELALCLGLKINP [chain 1 M229E] was tested. Which ratio to parent did it give?
**A.** 12.8

**Q.** For chain 1 MDNARRKTPARLDAACFWQIWQRFDKEEKGYIRETELDAFFDHLLAKSGTEDTLMEENVQKVKEQLMTSHNVSKEGRILMKELASMFLSEDENFLLFFRLETPLDNSVEFMQIWRKYDADSSGFISAAELCNFLRDLFLHHKKNISEAELEEYTSTMMKIFDKNKDGRLDLNDLARILALQENFLLQFKMDASSTEERKRDFEKIFAHYDVSKTGALEGPEVDGFVKDAMELVQPSISGVDLDKFREILLRHCDVNKDGKIQKSELALCLGLKINP [chain 1 M229A], which ratio to parent is on record?
**A.** 3.98

**Q.** How did the ratio to parent turn out when chain 1 MDNARRKTPARLDAACFWQIWQRFDKEEKGYIRETELDAFFDHLLAKSGTEDTLMEENVQKVKEQLMTSHNVSKEGRILMKELASMFLSEDENFLLFFRLETPLDNSVEFMQIWRKYDADSSGFISAAELCNFLRDLFLHHKKNISEAELEEYTSTMMKIFDKNKDGRLDLNDLARILALQENFLLQFKMDASSTEERKRDFEKIFAHYDVSKTGALEGPEVDGFVKDMMELVQPSISGVDLDKFREILLRHCDVNKDGKIQKSELALCAGLKINP [chain 1 L270A] was run?
**A.** 39.8

From publication PMC11032447
